Assay results taken from the DeepSol protein solubility set.

assay: soluble on expression in E. coli; label from the status in PepcDB or PDB records

Sequence | soluble on expression in E. coli
MIPGSTSGISFSRILSRQTSHQDATQHTDAQQAEIQQAAEDSSPGAEVQKFVQSTDEMSAALAQFRNRRDYEKKSSNLSNSFERVLEDEALPKAKQILKLISVHGGALEDFLRQARSLFPDPSDLVLVLRELLRRKDLEEIVRKKLESLLKHVEEQTDPKTLKAGINCALKARLFGKTLSLKPGLLRASYRQFIQSESHEVEIYSDWIASYGYQRRLVVLDFIEGSLLTDIDANDASCSRLEFGQLLRRLTQLKMLRSADLLFVSTLLSYSFTKAFNAEESSWLLLMLSLLQQPHEVDSLLADIIGLNALLLSHKEHASFLQIFYQVCKAIPSSLFYEEYWQEELLMALRSMTDIAYKHEMAEQRRTIEKLS | not soluble
EHRKVERGILAYQPGKLLVRGDTPLFKIERLLGIDLDHIEAETLAGLIYETLKRVPEEEEQMEVEGLRIIIKKMKGPKIVLAKVLKLD | not soluble
GMQTKVINFNDKFSLFNQHWSPRVIAEMNDYQFKLVKVEGEFVWHEHADTDEVFIVMEGTLQIAFRDQNITLQAGEMYVIPKGVEHKPMAKEECKIMIIEPR | soluble
MKLFISPGACSLAPHIALRETGADFEAVKVDLAVRKTEAGEDFLTVNPSGKVPALTLDSGETLTENPAILLYIADQNPASGLAPAEGSLDRYRLLSRLSFLGSEFHKAFVPLFAPATSDEAKAAAAESVKNHLAALDKELAGRDHYAGNAFSVADIYLYVMLGWPAYVGIDMAAYPALGAYAGKIAQRPAVGAALKAEGLA | soluble
KEPEMRPLGAYDTEELIPVLDYLDQQKINYKLDGNTVSVESSEYNSIKLGMVRSGVNQATEAGDDILLQDMGFGVSQRLEQERLKLSRERQLAQAIEEMKQVRKARVLLALPKHSVFVRHNQEASASVFLTLSTGANLKQQEVDSIVDMVASAVPGMKTSRITVTDQHGRLLSSGSQDPASAARRKEQELERSQEQALREKIDSVLLPILGFGNYTAQVDIQMDFSAVEQTRKRFDPNTPSTRSEYALEDYNNGNMVAGIPGALSNQPPADASIPQDVAQMKDGSVMGQGSVRKESTRNFELDTTISHERKQTGTVARQTVSVAIKDRRQVNPDTGEVTYTPMSEGEINAIRQVLIGTVGFDQSRGDLLNVLSVKFAEPETEQLVDQPIWEHPNFND | not soluble
MGSDKIHHHHHHMRVPPHNLEAEVAVLGSILIDPSVINDVLEILSHEDFYLKKHQHIFRAMEELYDEGKPVDVVSVCDKLQSMGKLEEVGGDLEVAQLAEAVPSSAHALHYAEIVKEKSILRKLIEISRKISESAYMEEDVEILLDNAEKMIFEISEMKTTKSYDHLRGIMHRVFENLENFRERANLIEPGVLITGLPTGFKSLDKQTTGFHSSDLVIIAARPSMGKTSFALSIARNMAVNFEIPVGIFSLEMSKEQLAQRLLSMESGVDLYSIRTGYLDQEKWERLTIAASKLYKAPIVVDDESLLDPRSLRAKARRMKKEYDVKAIFVDYLQLMHLKGRKESRQQEISEISRSLKLLARELDIVVIALSQLSRAVEQREDKRPRLSDLRESGAIEQDADTVIFIYREEYYRSKKSKEESKLHEPHEAEIIIGKQRNGPVGTITLIFDPRTVTFHEVDVVHS | not soluble
GILAEAHGTRPDLTDQPLPDADHTWYTDGSSLLQEGQRKAGAAVTTETEVIWAKALPAGTSAQRAELIALTQALKMAEGKKLNVYTDSRYAFATAHLTSEGKEIKNKDEILALLKALFLPKRLSIIHCPGHQKGHSAEARGNRMADQAARKAAITETPDTSTLL | soluble
MSKQAFQKIYTKITNITKATCSLRATGVGNEELATIDGRLAQVVRIQGEDVTLQVFAGTEGIPTDAEVIFMGKAPSLKVGDQLAGRFFNAYGEPIDGGPQPEGKEVEIGGPSVNPVRRKQPSELIATGIAGIDLNNTLVTGQKIPFFADPDQPFNQVMAMVALRAESDKIILGGMGMTNDDYLFFKNTFSNAGALDRIVSFINTTEDPSVERILVPDMALAAAEYFAVEKHEKVLVLLTDMTNYADALAIVSNRMDQIPSKDSMPGSLYSDLAKIYEKAVQFPDGGSITIIAVTTLSGGDITHAVPDNTGYITEGQLYLRRDSNVGKVIVDPFRSLSRLKQLVIGKKTREDHPQVMNAAVRLFSDAANAQTKMENGFDLTDYDNRALEFANDYSRQLLAIDVNVNTTEMLDTAWELFSKHFKPAEVNIKQQLVDTYWKK | not soluble
MGSDKIHHHHHHMSYSAKVLWGEGLFLRPQHFQRQDAYHEARLFESIQAIQPYNWGVRSVRFDRDALGSNVLRASELSLVFPDGALYSAPQADELPPPIALDTLPEGINEFTFYLALHPLRETGSNYADDRDAGFVSRFVSEQASVADHFTDAAEADITFLKTNVKLIAHSEPRDQLLSIPLVRVRRTATSGFEIDDGFVPPCLAIEASPILHQRLRQLIDALQAKVNALYGFHREPTKNIIEFRSGDIASFWLLHTASAAFAALAHLHQHSALHPERLFQELLRLAGQLMTFSKGYVLADLPAYRHDDPGPGFARLDSILRELLETVISTRYFAITLEEVRPSFHVGRLDSGKIDDKTAFYLAVSADMPSVELVDAVPARFKVGAPDDVDKLVLSAMPGVRLAYTPQVPPAIPVRPGACYFALDARSPLYERMLQAQSAMIYAPSGINDLKFELIAVTS | not soluble
MAHHHHHHMNLDEFNELVEQRNRIEREIQENVNFLEAPENKGVGLHGKLVDEEGFPRNDIDIYSIRVARNKVICLKNDYLNVSKRIEEYLHKVHTSHPVIRVQRSKAKKEEGDDPNESPPESCTQDYDESAPGYELLIEEAKRSTFAMIDELVENSPSHKAGLRINDYIIQFGDVQKKKKKNEENEKEDADIFNRIAAYMRNNPTRIKVKILREGKIFFYFVFPNRTPNGLYIGCHLTPISVGGGSV | not soluble
MHVWPVQDAKARFSEFLDACITEGPQIVSRRGAEEAVLVPIGEWRRLQAAARPSLKQLLLSDSARTEMLVPERGKARRRQVEPLR | soluble
MSLTKKDVIKLLEQIATYMELKGENTFKISAYRKAAQSLELDERPLDEISDVTELKGIGKGVAEVINDYRETGESQYLQQLQEEVPEGLIPLLKIQGLGSKKIAKLYKELNIVDKASLQVACENGKVSELSGFAKKTEQNILEAVKQLGAKKDRYPIDQMRRLNQEIIDYIDTLNYIDQYSSAGSFRRFKEMSKDLDFIISTDNPKAVQQQLLNIPNKVKEVAVGNTKVSLELAYDDETIGVDFRLIEPRAFYHTLQHFTGSKEHNIRIRQLAKARDEKVSEYGIEQADGTLIQYDSEAKIYEHFNVNFIPPAMREDGSEFDKDLSNIITLDDINGDIHMHTTYSDGAFSIRDMVEANIAKGYKFMVITDHSQSLRVANGLQVERLLRQNEEIKALDKEYSEIDIYSGTEMDILPDGSLDYDDEILAQLDYVIGAIHQSFNQSEEQIMERLANACRNPYVRHIAHPTGRIIGRRDGYKPNIEQLMALAEETNTVLEINANPHRLDLNAEIVRKYPNVKLTINTDAHHTNHLDFMNYGVATAQKGFVTKDRVINALSREAFKDFIENNIKLKKEGHHHHHH | soluble
MGSDKIHHHHHHMINHHPNSDVLAQFVAGTLPASVSVLVASHVELCSECTRAVQALTEQAAIDAFGESSQEALRDASQPAGLADVSGLDDFDGLDDFDTSDQFGDSDEFADCINAITALERDDTQQLPQTVTEIAVGGERIPLPTALRSIPLKEWQGMGKLSRSRLALDDGDLRMSLLHIDKGGSVPCHTHKGFEITLLLQGSFTDEMGEYRKGDFIWLDGQHTHQPVTEKGCVCLTVSSDAIRFTQGVSQLLNPIGRFIY | not soluble
MAHHHHHHMGGPPTIEELKREKIIPHVFPDENVDLTVDMYISFKSGKEVNHGNILDLAGTGSVPRNIKFSEEPPEDYCYILFMIDPDFPSRRRPDGRDYVHWAVSGIKSKELVKGTDKNCITLLPYVGPSIKKGTGLHRISFILSLVKEENKGNVTGVPLYRGEHYITRVKFNNCQSAYNVIQMNDMKIVGFNWCQMRRK | soluble
MGHHHHHHSHMANSMANSMNNRTRLALIICNTEFDHLPPRNGADFDITGMKELLEGLDYSVDVEENLTARDMESALRAFATRPEHKSSDSTFLVLMSHGILEGICGTVHDEKKPDVLLYDTIFQIFNNRNCLSLKDKPKVIIVQACRGANRGELWVRDSPASLEVASSQSSENLEEDAVYKTHVEKDFIAFCSSTPHNVSWRDSTMGSIFITQLITCFQKYSWCCHLEEVFRKVQQSFETPRAKAQMPTIERLSMTRYFYLFPGN | not soluble
KGTYLSEYANFAAALTEGKILLLADLRGFGETTDPAFYTDAKYWNREYRNAMVSMHIGRPIMGQRVVDILTLLDFCSEHEFLKGHPVKVFANGIYGPVAIHAAYLDERINSVEIKHSVKTWKEYIERPMQWDMYSNVLYGALKYYDLPDLIRLSNCPIRFAD | not soluble
PEPGKKPVSAFSKKPRSVEVAAGSPAVFEAETERAGVKVRWQRGGSDISASNKYGLATEGTRHTLTVREVGPADQGSYAVIAGSSKVKFDLKVIE | soluble
MVERIEDLNLPNAVIGRLIKEALPESASVSKEARAAIARAASVFAIFVTSSSTALAHKQNHKTITAKDILQTLTELDFESFVPSLTQDLEVYRKVVKEKKESKASKKDSNTAENANASATATAEEAPE | soluble
MGSDKIHHHHHHMMSRPIILGIVGDSAAGKTTLTRGIAQVLGPENVTLICTDDYHRYDRQQRAEIGITALHPDCNHLDIMQQHLSLLRTGQPILKPVYSHKTGSFEPPQYIKPNKFVIIEGLLGYSTRAARDCYDVKVYLAPPENLRAKWKVKRDTQKRGYTPEQVLAELEKREPDSEQFIRPQRQWSDIVVSFYPPHEDGDETNGHLNVRLVLRPTIPHPDFTSIINLTNGSSVSAIRLGLDRDMSKPVDVLEVDGHATLEQVNKLEHILCSDMPYLSSVCDRESNPELGKIAGTTGETLQSYPLALTQLIITYHMLKATQIYQ | not soluble
MLIELLISITVLASILVSCKKEKNEAAKLKPRGFDRKSSGAPAPAGANLVNKSGGSGGGSGGSGDANRLLKREIKEVKMEERSADDNETINDVKSNWGTV | not soluble
MWEANELSSTNTFSHQAEMDWPSANWWQRYQDAQLNHLIEEALQHSPSLCMAMARLKGAQGFARQAGAIRSFDLGLAASATESKVSERYQSATPPDGWNDYGTLTLNFQYDFDFWGKNRAAVVAATSELAAAEAESVAARLMISTSIANAYAELARLYANQETVHAALQVRNKTVELLEKRYANGLETLGSVSQAKAVAASVEAELLGIQESIQLQKNALAALVGQGPDRAASIEEPHITLTSRYGLPSEAGVGLLGHRADITAARWRAEAAAQQVGIAQAQFYPDVTLSAFIGYQAFGLDHLFDSGNDAGAIGPAIYLPLFTGGRLEGQLTSAEARYQEAVAQYNGTLVQALHEIADVVTSSQALQARINKTEQAVQQAEQALHIATNRYQGGLATYLDVLVAEESLLNNQRALVNLQSRAFSLDLALIHALGGGFETTES | soluble
MPQQTVEVKEVDVLIRGIWRKKKFTDIQKGQTFKIEENGRTKKYIARTDPYWDDMFETYIIDLLDKNKIRRNKLEHHHHHH | not soluble
MAHHHHHHMNIVTSYFLVRKLPGTLAMGGDVLEHQNARQREYMECLRLNQQHPGVASIHLIVEGADAYEHLLKHVLCNPHFQNASTLTTSTAPASARHRRRHAAPIVPVVRFASGMPLYADFFAYANQLLSHRLTMVCNADVYLSPEHFSLSAVEDLFRQSSTLPPPHAAPCGSCQPSTADLAEREAMRPKSAPKRANPLALALTRYESDSPLDAPFLFDYRGSHDAFVLVPPVPPSFVRSVAHPQNCYKAENIVLHELQQSGYLTLNPTLGDGVRLVHRHATDLRQWFPPVDESRYGRAQPNTLAQAASRIREEARVRSLPPSV | not soluble
